Laboratory results published in IntAct's records for PubMed 19407142.

B1: Abscisic acid receptor PYR1 (Arabidopsis thaliana (Mouse-ear cress)), O49686 (parent)
chain: MPSELTPEERSELKNSIAEFHTYQLDPGSCSSLHAQRIHAPPELVWSIVRRFDKPQTYKHFIKSCSVEQNFEMRVGCTRDVIVISGLPANTSTERLDILDDERRVTGFSIIGGEHRLTNYKSVTTVHRFEKENRIWTVVLESYVVDMPEGNSEDDTRMFADTVVKLNLQKLATVAEAMARNSGDGSGSQVT
B2: Protein phosphatase 2C 77 (Arabidopsis thaliana (Mouse-ear cress)), O04719 (parent)
chain: MDEVSPAVAVPFRPFTDPHAGLRGYCNGESRVTLPESSCSGDGAMKDSSFEINTRQDSLTSSSSAMAGVDISAGDEINGSDEFDPRSMNQSEKKVLSRTESRSLFEFKCVPLYGVTSICGRRPEMEDSVSTIPRFLQVSSSSLLDGRVTNGFNPHLSAHFFGVYDGHGGSQVANYCRERMHLALTEEIVKEKPEFCDGDTWQEKWKKALFNSFMRVDSEIETVAHAPETVGSTSVVAVVFPTHIFVANCGDSRAVLCRGKTPLALSVDHKPDRDDEAARIEAAGGKVIRWNGARVFGVLAMSRSIGDRYLKPSVIPDPEVTSVRRVKEDDCLILASDGLWDVMTNEEVCDLARKRILLWHKKNAMAGEALLPAEKRGEGKDPAAMSAAEYLSKMALQKGSKDNISVVVVDLKGIRKFKSKSLN
B3: Protein phosphatase 2C 56 (Arabidopsis thaliana (Mouse-ear cress)), P49597 (parent)
chain: MEEVSPAIAGPFRPFSETQMDFTGIRLGKGYCNNQYSNQDSENGDLMVSLPETSSCSVSGSHGSESRKVLISRINSPNLNMKESAAADIVVVDISAGDEINGSDITSEKKMISRTESRSLFEFKSVPLYGFTSICGRRPEMEDAVSTIPRFLQSSSGSMLDGRFDPQSAAHFFGVYDGHGGSQVANYCRERMHLALAEEIAKEKPMLCDGDTWLEKWKKALFNSFLRVDSEIESVAPETVGSTSVVAVVFPSHIFVANCGDSRAVLCRGKTALPLSVDHKPDREDEAARIEAAGGKVIQWNGARVFGVLAMSRSIGDRYLKPSIIPDPEVTAVKRVKEDDCLILASDGVWDVMTDEEACEMARKRILLWHKKNAVAGDASLLADERRKEGKDPAAMSAAEYLSKLAIQRGSKDNISVVVVDLKPRRKLKSKPLN

Variants of: B1
Conditions: with HAB1, Q9CAJ0
Chain of HAB1, Q9CAJ0 (Q9CAJ0 whole entry): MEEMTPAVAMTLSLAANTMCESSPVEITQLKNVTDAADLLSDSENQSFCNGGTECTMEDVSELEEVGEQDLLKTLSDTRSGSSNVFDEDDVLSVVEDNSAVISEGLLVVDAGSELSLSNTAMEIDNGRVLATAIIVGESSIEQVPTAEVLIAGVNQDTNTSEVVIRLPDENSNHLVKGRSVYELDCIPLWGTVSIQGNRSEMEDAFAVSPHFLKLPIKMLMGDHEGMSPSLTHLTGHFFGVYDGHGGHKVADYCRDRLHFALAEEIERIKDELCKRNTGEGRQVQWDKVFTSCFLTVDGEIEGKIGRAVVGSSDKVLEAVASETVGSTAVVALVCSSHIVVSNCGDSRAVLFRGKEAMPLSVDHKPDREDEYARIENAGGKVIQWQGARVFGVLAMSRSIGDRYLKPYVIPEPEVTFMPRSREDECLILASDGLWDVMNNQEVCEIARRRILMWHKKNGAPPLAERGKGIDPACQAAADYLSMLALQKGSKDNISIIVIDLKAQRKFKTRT

effect of a mutation on the interaction | Variant
disrupting interaction | MPSELTPEERSELKNSIAEFHTYQLDPGSCSSLHAQRIHAPPELVWSIVRRFDKPQTYKHFIKSCSVEQNFEMRVGCTRDVIVISGLSANTSTERLDILDDERRVTGFSIIGGEHRLTNYKSVTTVHRFEKENRIWTVVLESYVVDMPEGNSEDDTRMFADTVVKLNLQKLATVAEAMARNSGDGSGSQVT
disrupting interaction | MPSELTPEERSELKNSIAEFHTYQLDPGSCSSLHAQRIHAPPELVWSIVRRFDKPQTYKHFIKSCSVEQNFEMRVGCTRDVIVISGLPANTSTERLDILDDERRVTGFSIIGGEHRLTNYKSVTTVHRFEKENRIWTVVLESYVVDMPEGNLEDDTRMFADTVVKLNLQKLATVAEAMARNSGDGSGSQVT

Variants of: B2
Conditions: with pyr1_arath PYR1, O49686

effect of a mutation on the interaction | Variant
disrupting interaction | MDEVSPAVAVPFRPFTDPHAGLRGYCNGESRVTLPESSCSGDGAMKDSSFEINTRQDSLTSSSSAMAGVDISAGDEINGSDEFDPRSMNQSEKKVLSRTESRSLFEFKCVPLYGVTSICGRRPEMEDSVSTIPRFLQVSSSSLLDGRVTNGFNPHLSAHFFGVYDGHDGSQVANYCRERMHLALTEEIVKEKPEFCDGDTWQEKWKKALFNSFMRVDSEIETVAHAPETVGSTSVVAVVFPTHIFVANCGDSRAVLCRGKTPLALSVDHKPDRDDEAARIEAAGGKVIRWNGARVFGVLAMSRSIGDRYLKPSVIPDPEVTSVRRVKEDDCLILASDGLWDVMTNEEVCDLARKRILLWHKKNAMAGEALLPAEKRGEGKDPAAMSAAEYLSKMALQKGSKDNISVVVVDLKGIRKFKSKSLN [G168D]

Variants of: B3
Conditions: with pyr1_arath PYR1, O49686

effect of a mutation on the interaction | Variant
decreasing interaction | MEEVSPAIAGPFRPFSETQMDFTGIRLGKGYCNNQYSNQDSENGDLMVSLPETSSCSVSGSHGSESRKVLISRINSPNLNMKESAAADIVVVDISAGDEINGSDITSEKKMISRTESRSLFEFKSVPLYGFTSICGRRPEMEDAVSTIPRFLQSSSGSMLDGRFDPQSAAHFFGVYDGHDGSQVANYCRERMHLALAEEIAKEKPMLCDGDTWLEKWKKALFNSFLRVDSEIESVAPETVGSTSVVAVVFPSHIFVANCGDSRAVLCRGKTALPLSVDHKPDREDEAARIEAAGGKVIQWNGARVFGVLAMSRSIGDRYLKPSIIPDPEVTAVKRVKEDDCLILASDGVWDVMTDEEACEMARKRILLWHKKNAVAGDASLLADERRKEGKDPAAMSAAEYLSKLAIQRGSKDNISVVVVDLKPRRKLKSKPLN [G180D]
